Source: US20220098591, “STEM-LOOP COMPOSITIONS AND METHODS FOR INHIBITING VASCULAR ENDOTHELIAL GROWTN FACTOR” (DRIVE THERAPEUTICS LLC, published 2022)

Assays:
VEGF-A121 [1] = target: T1, VEGF-A121 (Homo sapiens, UniProt P15692 SEQ:1-121); experiment: competition; TR-FRET; stem S1 mispaired; details: tags: glycan-biotinylated for SPR/FRET/AlphaLISA; Acro BioSystems, Biolegend; chain copies: 2 (stated)
Procedure: (§1) Briefly, for competition TR-FRET, 2-fold dilutions of thermally equilibrated aptamers were made in TR-FRET Buffer (50 mM MOPS, pH 7.4, 125 mM NaCl, 5 mM KCl, 50 μM CHAPS, 0.1 mg/mL BSA, 1 mM CaCl₂, and 1 mM MgCl₂). 5 μL of aptamer or control solution was added to a 15 μL mix of glycan biotinylated […] (5 nM final), ALEXA FLUOR® 647-labeled Aptamer (30 nM final), and Streptavidin-Eu (Perkin Elmer; 2.5 nM final) in a black wall low volume 384 well plate (Greiner). For control, 5 μl of 1000-fold excess of unlabeled parent aptamer or 5 μl TR-FRET buffer alone was added to the mix of ALEXA FLUOR® 647-labeled aptamer, biotin-VEGF-A, and Streptavidin-Eu. The plate was covered with a plate seal and subsequently incubated in the dark for 1 hour at room temperature. The plate was read on a Biotek CYTATION™ 5 plate reader. Samples were excited at 330 nm and fluorescent values were collected at 665 nm. Data analysis was performed by subtracting the background value and plotting as percent inhibition, normalized to baseline in the absence of competitor. The values were fit by [Inhibitor] vs. response-Variable slope (four parameters) using GraphPad Prism Version 7.0 and then normalized to aptamer control to obtain an IC₅₀ relative to parent aptamer. Data is presented as log values of relative IC₅₀. […]

VEGF-A165 [2] = target: T2, VEGF-A165 (Homo sapiens); experiment: cell_activity; partial (~80%) inhibition of KDR phosphorylation; no inhibition of KDR binding in AlphaLISA; details: tags: glycan-biotinylated for SPR/FRET/AlphaLISA; Acro BioSystems, R&D Systems; chain copies: 2 (inferred)
T2 chain: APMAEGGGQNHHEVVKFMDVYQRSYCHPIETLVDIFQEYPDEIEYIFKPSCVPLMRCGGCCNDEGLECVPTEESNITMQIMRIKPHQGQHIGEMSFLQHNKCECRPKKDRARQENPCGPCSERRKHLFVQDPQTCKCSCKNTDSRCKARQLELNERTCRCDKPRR
Procedure: Briefly, HEK293 cells engineered to stably overexpress KDR were plated overnight in collagen coated 96 well plates at 50 k cells/well. Aptamers in SB1+ (40 mM HEPES, pH 7.5, 125 mM NaCl, 5 mM KCl, 1 mM MgCl₂) were heated to 90° C. for 3 minutes and allowed to cool to room temperature for a minimum of 10 minutes. […] 15 μL of VEGF-A was added to 15 μL titrated aptamer in a polypropylene plate and diluted to 300 μL with TS buffer (10 mM Tris pH 7.5; 100 mM NaCl; 5.7 mM KCl; 1 mM MgCl₂; 1 mM CaCl₂). The aptamer/VEGF-A mixture was incubated at 37° C. for 30 minutes, after which 100 μL was added to the cells for 5 minutes at 37° C. in 5% CO₂. Treatments were aspirated from cells, and cells were lysed with 100 μL cold lysis buffer [20 mM Tris-HCl, pH 7.5, 150 mM NaCl, 1 mM EDTA, 1% Triton X-100, 0.5 mM sodium orthovanadate (freshly prepared), 1 mM PMSF (freshly prepared), lx protease inhibitor cocktail (freshly prepared)] on ice for 10 minutes. […]
To perform the AlphaLISA® assay, 10 μL of cell lysis was transferred to a white low volume 384 well Optiplate (Perkin Elmer). […] The assay plate was sealed and incubated in the dark for approximately 2 hours, then was read on a Biotek CYTATION™ 5 plate reader using the Alpha 384 well optical cube. Percent inhibition was calculated by subtracting TS buffer background from each value and normalizing to VEGF-A only controls. […]

VEGF-A110 = VEGF-A110 (Homo sapiens, UniProt P15692 SEQ:1-110); experiment: SPR; no binding at highest concentration (500 nM); details: tags: glycan-biotinylated; chain copies: 2 (stated)
Procedure: (§2) Aptamer 26 was identical in sequence to Aptamer 4.2 but contained a hexylamine linker in place of the C6 disulfide linker at the 5′ terminus. […] Briefly, in the SPR studies, 1.0-2.5 μg/mL of glycan biotinylated VEGF-A₁₆₅, VEGF-A₁₂₁, and VEGF-A₁₁₀ were diluted in HEPES running buffer (10 mM HEPES, 137.5 mM NaCl, 5.7 mM KCl, 1 mM MgCl₂, 1 mM CaCl₂, and 0.05% Tween20; pH 7.4) and immobilized to a streptavidin dextran chip (GE Healthcare Life Sciences) for 1-2 minutes. The chip was then blocked with 0.2 mg/mL biotin in running buffer, followed by 3 cycles of buffer blanks and regenerated with 50 mM NaOH to equilibrate the chip. […] After coating and blocking, samples were screened at 100 nM in duplicate injections at a flow rate of 25 μL/min, with an association time of 3 minutes 20 seconds and a dissociation time of 10 minutes. Regeneration conditions of chips were optimized based on the protein immobilized and effected with either 50 mM NaOH for 30 seconds or 2M guanidine HCl for 2×40 seconds.
(§3) Data was fit to a 1:1 kinetic binding model.

VEGF-A121 [3] = target: T1, VEGF-A121; experiment: SPR; no binding at highest concentration (500 nM); details: tags: glycan-biotinylated for SPR/FRET/AlphaLISA; Acro BioSystems, Biolegend; chain copies: 2 (stated)
Procedure: as §2, §3

VEGF-A165 [4] = target: T2, VEGF-A165; experiment: SPR; HBD-binding aptamer; details: tags: glycan-biotinylated for SPR/FRET/AlphaLISA; Acro BioSystems, R&D Systems; chain copies: 2 (inferred)
Procedure: as §2, §3

VEGF-A121 [5] = target: T1, VEGF-A121; experiment: competition; TR-FRET; details: tags: glycan-biotinylated for SPR/FRET/AlphaLISA; Acro BioSystems, Biolegend; chain copies: 2 (stated)
Procedure: Briefly, for competition TR-FRET, 2-fold dilutions of thermally equilibrated aptamers were made in TR-FRET Buffer (50 mM MOPS, pH 7.4, 125 mM NaCl, 5 mM KCl, 50 μM CHAPS, 0.1 mg/mL BSA, 1 mM CaCl₂, and 1 mM MgCl₂). 5 μL of aptamer or control solution was added to a 15 μL mix of glycan biotinylated […] (5 nM final), ALEXA FLUOR® 647-labeled Aptamer (30 nM final), and Streptavidin-Eu (Perkin Elmer; 2.5 nM final) in a black wall low volume 384 well plate (Greiner). For control, 5 μl of 1000-fold excess of unlabeled parent aptamer or 5 μl TR-FRET buffer alone was added to the mix of ALEXA FLUOR® 647-labeled aptamer, biotin-VEGF-A, and Streptavidin-Eu. The plate was covered with a plate seal and subsequently incubated in the dark for 1 hour at room temperature. The plate was read on a Biotek CYTATION™ 5 plate reader. Samples were excited at 330 nm and fluorescent values were collected at 665 nm. Data analysis was performed by subtracting the background value and plotting as percent inhibition, normalized to baseline in the absence of competitor. The values were fit by [Inhibitor] vs. response-Variable slope (four parameters) using GraphPad Prism Version 7.0 and then normalized to aptamer control to obtain an IC₅₀ relative to parent aptamer. Data is presented as log values of relative IC₅₀.
Starting at position 6, 2′F-G residues were systematically replaced, one at a time, and the activity of the resultant molecule was assessed by competition TR-FRET, as described in Example 7, against the parent molecule, Aptamer 141.

VEGF-A165 [6] = target: T2, VEGF-A165; experiment: cell_activity; KDR phosphorylation; >50% at 100 nM with VEGF-A121; details: tags: glycan-biotinylated for SPR/FRET/AlphaLISA; Acro BioSystems, R&D Systems; chain copies: 2 (inferred)
Procedure: (§4) Briefly, HEK293 cells engineered to stably overexpress KDR were plated overnight in collagen coated 96 well plates at 50 k cells/well. Aptamers in SB1+ (40 mM HEPES, pH 7.5, 125 mM NaCl, 5 mM KCl, 1 mM MgCl₂) were heated to 90° C. for 3 minutes and allowed to cool to room temperature for a minimum of 10 minutes. […] 15 μL of VEGF-A was added to 15 μL titrated aptamer in a polypropylene plate and diluted to 300 μL with TS buffer (10 mM Tris pH 7.5; 100 mM NaCl; 5.7 mM KCl; 1 mM MgCl₂; 1 mM CaCl₂). The aptamer/VEGF-A mixture was incubated at 37° C. for 30 minutes, after which 100 μL was added to the cells for 5 minutes at 37° C. in 5% CO₂. Treatments were aspirated from cells, and cells were lysed with 100 μL cold lysis buffer [20 mM Tris-HCl, pH 7.5, 150 mM NaCl, 1 mM EDTA, 1% Triton X-100, 0.5 mM sodium orthovanadate (freshly prepared), 1 mM PMSF (freshly prepared), lx protease inhibitor cocktail (freshly prepared)] on ice for 10 minutes. Plates were centrifuged at 4000×g for 10 minutes before transferring the cell lysis to the AlphaLISA® assay plate.
(§5) To perform the AlphaLISA® assay, 10 μL of cell lysis was transferred to a white low volume 384 well Optiplate (Perkin Elmer). […] 10 μL of this reagent mixture was added to the assay plate that contained 10 μL of cell lysate. The assay plate was sealed and incubated in the dark for approximately 2 hours, then was read on a Biotek CYTATION™ 5 plate reader using the Alpha 384 well optical cube. Percent inhibition was calculated by subtracting TS buffer background from each value and normalizing to VEGF-A only controls. The values were fit by using a four-parameter non-linear fit in GraphPad Prism Version 7.0.

VEGF-A121 [7] = target: T1, VEGF-A121; experiment: cell_activity; KDR phosphorylation in HEK293-KDR; details: tags: glycan biotinylated in TR-FRET; Biolegend in the cell assay; chain copies: 2
Procedure: as §4, §5

VEGF-A121 [8] = target: T1, VEGF-A121; experiment: competition; TR-FRET; also no pKDR inhibition at 100 nM; details: tags: glycan-biotinylated for SPR/FRET/AlphaLISA; Acro BioSystems, Biolegend; chain copies: 2 (stated)
Procedure: as §1

B1: Aptamer 180 (ssRNA)
RNA: AGGCCGCAUCCGCGCGGAGGGGUUUCAUUAUCCCGUUUAACCGCUU
modifications: all G 2'-F; A,C,U 2'-OMe; 5' C6NH2; 3' idT
- binding signal (VEGF-A121 [1]): > 100 fold worse IC50 vs Aptamer 26

B2: Aptamer 181 (ssRNA)
RNA: AGGCCGCAUCCGCGCGGAGGGGUUUCAUUAUCCCGUUUAACCGAUU
modifications: all G 2'-F; A,C,U 2'-OMe; 5' C6NH2; 3' idT
- binding signal (VEGF-A121 [1]): > 100 fold worse IC50 vs Aptamer 26

B3: Aptamer 7 (ssRNA)
RNA: CGGAAUCAGUGAAUGCUUAUACAUCCG
modifications: 2'-F C and U; 2'-OMe G and A except AA at positions 4-5; 5' C6NH2; 3' idT
- IC50 (VEGF-A165 [2]): 2.2 nM
- binding result (VEGF-A110): no binding
- binding result (VEGF-A121 [3]): no binding
- Kd (VEGF-A165 [4]): 0.6 nM

B4: Aptamer 196 (ssRNA)
RNA: AGGCCGACCCGCGCGGAGGGGUUUCAUUAUCCCGUUUGUCGGCUU
modifications: G 2'-F except G22 2'-OMe; A,C,U 2'-OMe; Sp3 joins the two parts; 5' C6NH2; 3' idT
- binding signal (VEGF-A121 [5]): ~2 fold better IC50 vs Aptamer 141

B5: Aptamer 198 (ssRNA)
RNA: AGGCCGACCCGCGCGGAGGGGUUUCAUUAUCCCGUUUGUCGGCUU
modifications: G 2'-F except G39 2'-OMe; A,C,U 2'-OMe; Sp3 joins the two parts; 5' C6NH2; 3' idT
- binding signal (VEGF-A121 [5]): ~2 fold better IC50 vs Aptamer 141

B6: Aptamer 199 (ssRNA)
RNA: GCCGACCCGCGCGGAGGGGUUUCAUUACCCCGUUUGUCGGC
modifications: all G 2'-F; A,C,U 2'-OMe; Sp3 joins the two parts; 5' C6NH2; 3' idT
- binding signal (VEGF-A121 [5]): ~2 fold better IC50 vs Aptamer 141

B7: Aptamer 29 (ssRNA)
RNA: UAGUCCGCCUCCGCGCGGAGGGGUUUCAUUAUCCCGUUUGGCGGCUUU
modifications: all G 2'-F; A,C,U 2'-OMe; 5' C6NH2; 3' idT
- activity (VEGF-A165 [6]): > 50 % inhibition at 10 nM

B8: Aptamer 29 (ssRNA)
RNA: UAGUCCGCCUCCGCGCGGAGGGGUUUCAUUAUCCCGUUUGGCGGCUUU
modifications: 2'-F G; 2'-OMe A,C,U; 5' C6NH2; 3' idT
- activity (VEGF-A121 [7]): > 50 % inhibition at 100 nM

B9: Aptamer 27 (ssRNA)
RNA: UAGGCCGCCUCCGCGCGGGGGGGUUUCAUUAUCCCGUUUGGCGGCUUU
modifications: all G 2'-F; A,C,U 2'-OMe; 5' C6NH2; 3' idT
- binding signal (VEGF-A121 [8]): > 100 fold worse IC50 vs Aptamer 26
